Assay results reported in paper PMC7986808.

T1: RH2, His-TF-RH2 (Medicago truncatula, UniProt A0A072TSA4 1-207)
T1 sequence: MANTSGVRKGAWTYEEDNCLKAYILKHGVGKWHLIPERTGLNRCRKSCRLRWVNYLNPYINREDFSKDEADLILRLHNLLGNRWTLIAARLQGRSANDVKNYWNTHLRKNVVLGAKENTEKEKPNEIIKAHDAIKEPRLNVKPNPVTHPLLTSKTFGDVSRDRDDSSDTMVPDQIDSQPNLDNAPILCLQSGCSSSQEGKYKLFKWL

B1: MtCHS probe (dsDNA)
DNA 1: TCAGACTCACATTAAAACTACAGTCTGTTGAGTTGTGCTATTATATTAAGAGAGACAAT
DNA 2: ATTGTCTCTCTTAATATAATAGCACAACTCAACAGACTGTAGTTTTAATGTGAGTCTGA
B2: MtANS probe (dsDNA)
DNA 1: CTATATATAAGAAGCTAGCTGCATACAACCATTTATTCACGTTTTGTGCTGTGCAATCA
DNA 2: TGATTGCACAGCACAAAACGTGAATAAATGGTTGTATGCAGCTAGCTTCTTATATATAG

Molecular target: T1, RH2, His-TF-RH2
Test: EMSA

| Binder | binding result |
| --- | --- |
| B1 | binds |
| B2 | binds |
